These results are taken from patent publication US20250270273A1 (NEKTAR THERAPEUTICS, published 2025).

The target in assay [1] is T1, IFN-γ receptor (IFNGR; IFNGR1 and IFNGR2) on human cells (human) (UniProt P15260).
T1 sequence (looked up) 1: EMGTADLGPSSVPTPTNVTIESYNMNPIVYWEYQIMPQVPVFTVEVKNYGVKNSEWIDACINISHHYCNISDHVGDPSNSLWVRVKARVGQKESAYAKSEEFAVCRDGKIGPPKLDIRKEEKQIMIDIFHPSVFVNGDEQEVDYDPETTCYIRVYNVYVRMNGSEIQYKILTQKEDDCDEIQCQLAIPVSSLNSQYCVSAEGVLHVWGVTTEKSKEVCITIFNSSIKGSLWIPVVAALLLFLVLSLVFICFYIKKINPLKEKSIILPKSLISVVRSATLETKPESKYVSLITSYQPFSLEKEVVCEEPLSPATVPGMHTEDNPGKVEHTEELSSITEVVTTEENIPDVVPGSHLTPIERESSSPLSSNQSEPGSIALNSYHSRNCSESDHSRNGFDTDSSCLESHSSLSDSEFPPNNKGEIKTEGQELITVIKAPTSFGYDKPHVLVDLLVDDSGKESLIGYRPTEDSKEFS
T1 sequence (looked up) 2: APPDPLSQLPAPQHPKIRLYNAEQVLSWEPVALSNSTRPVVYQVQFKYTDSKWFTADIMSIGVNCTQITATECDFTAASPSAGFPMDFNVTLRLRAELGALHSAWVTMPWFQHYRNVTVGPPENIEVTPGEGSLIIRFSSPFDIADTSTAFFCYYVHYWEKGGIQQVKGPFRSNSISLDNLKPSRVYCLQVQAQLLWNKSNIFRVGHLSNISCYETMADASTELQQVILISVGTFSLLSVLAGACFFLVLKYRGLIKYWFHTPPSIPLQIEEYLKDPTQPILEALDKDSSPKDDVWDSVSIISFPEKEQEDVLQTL
Put plainly: cell-based or functional assay.

The target of assay [2] is T2, IFNγR1 fused to the constant region of the antibody IgG1 (UniProt P15260 18-245, limits assumed).
T2 construct: also called IFNGR1; Interferon gamma receptor 1 fused to the Fc region; not shown: constant region (Fc) of IgG1, captured on the chip by an anti-human IgG antibody
T2 sequence (looked up): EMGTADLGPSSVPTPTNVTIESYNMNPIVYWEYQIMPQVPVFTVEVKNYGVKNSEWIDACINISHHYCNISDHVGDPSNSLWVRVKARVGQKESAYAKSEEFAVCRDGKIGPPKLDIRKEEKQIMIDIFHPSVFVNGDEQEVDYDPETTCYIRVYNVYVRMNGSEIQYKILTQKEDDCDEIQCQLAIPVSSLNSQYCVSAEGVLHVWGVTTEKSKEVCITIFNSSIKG
Nature of the assay: SPR (Biacore, CM5 chip), IFNγR1-IgG1 Fc captured by anti-human IgG, analyte injected. On the procedure: Briefly, the surface of a BAcore™ CM5 sensor chip was coated with anti-human IgG antibody comprising IFNγR1 fused to the constant region of the antibody IgG₁.
Each of the IFN-γ-b protein, the M135C, S98C, and S66C cysteine muteins, and Compounds 1, 2, and 3 were separately injected onto the sensor chip which was coated with IFNγR1. The affinities were measured by determining the kinetic on-rate (kₒₙ) and the kinetic off-rate (koff) rates separately, and the ratio between kₒₙ and koff was used to calculate the Kd values with the results shown in Table 9.

Assay [3] deals with T3, IFN-γ receptor (IFNGR; IFNGR1 and IFNGR2) on human cells (human, UniProt P15260 18-489; P38484 22-337).
T3 sequence (looked up) 1: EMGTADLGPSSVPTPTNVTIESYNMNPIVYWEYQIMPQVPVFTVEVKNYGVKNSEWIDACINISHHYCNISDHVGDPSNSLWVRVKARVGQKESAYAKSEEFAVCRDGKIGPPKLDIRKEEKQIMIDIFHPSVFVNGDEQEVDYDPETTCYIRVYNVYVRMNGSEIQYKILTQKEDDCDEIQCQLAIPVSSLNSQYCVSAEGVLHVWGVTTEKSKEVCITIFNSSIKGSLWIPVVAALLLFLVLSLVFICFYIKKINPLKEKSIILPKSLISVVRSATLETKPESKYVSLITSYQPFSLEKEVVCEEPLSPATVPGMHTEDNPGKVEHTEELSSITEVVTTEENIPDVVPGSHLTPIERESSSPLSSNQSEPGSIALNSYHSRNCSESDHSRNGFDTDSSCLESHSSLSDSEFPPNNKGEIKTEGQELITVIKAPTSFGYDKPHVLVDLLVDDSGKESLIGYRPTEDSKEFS
T3 sequence (looked up) 2: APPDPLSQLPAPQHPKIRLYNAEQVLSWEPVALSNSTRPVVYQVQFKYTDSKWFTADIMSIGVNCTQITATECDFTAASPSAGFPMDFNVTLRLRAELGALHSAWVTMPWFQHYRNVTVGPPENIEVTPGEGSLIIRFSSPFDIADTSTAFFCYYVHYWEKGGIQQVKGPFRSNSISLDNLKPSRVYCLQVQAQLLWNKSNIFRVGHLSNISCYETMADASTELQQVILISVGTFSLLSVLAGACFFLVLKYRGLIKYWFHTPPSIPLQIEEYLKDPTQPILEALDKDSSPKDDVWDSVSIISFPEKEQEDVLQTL
Nature of the assay: cell-based or functional assay.

The target of assay [4] is T3, IFN-γ receptor (IFNGR; IFNGR1 and …). Put plainly: cell-based or functional assay. This is another data set of the same source.

Take “Compound 6, mono-mPEG2-MAL-20K-rhIFN-γ-1b-N98C (from UniProt P01579 24-162) (ligand)”: in assay [1], the EC50 in HT-29 cells, MHCI was 0.047 ng/mL; the EC50 in HT-29 cells, MHCII came out at 0.86 ng/mL; the EC50 in HT-29 cells, PD-L1 was 1.3 ng/mL; the EC50 in HT-29 cells, pSTAT1 turned out to be 1.2 ng/mL.

As to “Compound 5, mono-mPEG2-MAL-20K-rhIFN-γ-1b-S66C (from UniProt P01579 24-162) (ligand)”, in assay [1], the EC50 in HT-29 cells, MHCI was found to be 0.023 ng/mL; the EC50 in HT-29 cells, MHCII was 0.27 ng/mL; the EC50 in HT-29 cells, PD-L1 came out at 0.37 ng/mL; the EC50 in HT-29 cells, pSTAT1 amounted to 1.3 ng/mL.

Regarding “Compound 4, mono-mPEG2-MAL-40K-rhIFN-γ-1b-M135C (from UniProt P01579 24-162) (ligand)”, in assay [1], the EC50 (ng/mL)-% pSTAT1, CD14+CD16+ (Intermediate) monocytes of human PBMCs was determined as 10.1 ng/mL; the EC50 (ng/mL)-% pSTAT1, CD14+CD16- (Classical) monocytes of human PBMCs amounted to 32.6 ng/mL; the EC50 (ng/mL)-% pSTAT1, CD14loCD16hi (Non-classical) monocytes of human PBMCs was 11.7 ng/mL; the EC50 (ng/mL)-MFI of pSTAT1, Classical monocytes of human PBMCs turned out to be 152 ng/mL. In assay [1], this molecule gave an EC50 (ng/mL)-MFI of pSTAT1, Intermediate monocytes of human PBMCs of 84.2 ng/mL; an EC50 (ng/mL)-MFI of pSTAT1, Non-classical monocytes of human PBMCs of 97.5 ng/mL; an EC50 in HT-29 cells, MHCI of 0.3 ng/mL; an EC50 in HT-29 cells, MHCII of 3.1 ng/mL. Further, in assay [1], the EC50 in HT-29 cells, PD-L1 is 3.6 ng/mL and the EC50 in HT-29 cells, pSTAT1 amounted to 180 ng/mL.

In assay [1], “Compound 7, ring-opened mono-mPEG2-MAL-20K-rhIFN-γ-1b-M135C (from UniProt P01579 24-162) (ligand)” came in with an EC50 in HT-29 cells, MHCI (Compound 7 (1)) of 5.3 ng/mL; an EC50 in HT-29 cells, MHCII (Compound 7 (1)) of 150 ng/mL; an EC50 in HT-29 cells, PD-L1 (Compound 7 (1)) of 190 ng/mL; an EC50 in HT-29 cells, pSTAT1 (Compound 7 (2)) of 969 ng/mL.

B1: rhIFN-γ-1b (wild-type recombinant human interferon-γ-1b) (ligand)
chain: MQDPYVKEAENLKKYFNAGHSDVADNGTLFLGILKNWKEESDRKIMQSQIVSFYFKLFKNFKDDQSIQKSVETIKEDMNVKFFNSNKKKRDDFEKLTNYSVTDLNVQRKAIHELIQVMAELSPAAKTGKRKRSQMLFRGR
notes: also called wt (rhIFN-γ-1b); WT IFN-γ-1b (Actimmune)
In assay [2], B1 displayed a Kd of 0.0655 nM, a koff of 0.000701 s⁻¹ and a kon of 1.07e+07 M⁻¹ s⁻¹. Moreover, in assay [3], the “EC50 (ng/mL)-% pSTAT1, CD14+CD16+ (Intermediate) monocytes of human PBMCs” value turned out to be 0.015 ng/mL; the “EC50 (ng/mL)-% pSTAT1, CD14+CD16- (Classical) monocytes of human PBMCs” value was found to be 0.035 ng/mL; the “EC50 (ng/mL)-% pSTAT1, CD14loCD16hi (Non-classical) monocytes of human PBMCs” value worked out at 0.018 ng/mL; the “EC50 (ng/mL)-MFI of pSTAT1, Classical monocytes of human PBMCs” value was found to be 0.3 ng/mL. In assay [3], the “EC50 (ng/mL)-MFI of pSTAT1, Intermediate monocytes of human PBMCs” value was determined as 0.24 ng/mL and the “EC50 (ng/mL)-MFI of pSTAT1, Non-classical monocytes of human PBMCs” value came to 0.26 ng/mL. In assay [4], the “EC50 in HT-29 cells, MHCI” value was 0.079 ng/mL; the “EC50 in HT-29 cells, MHCII” value amounted to 0.53 ng/mL; the “EC50 in HT-29 cells, PD-L1” value came to 0.69 ng/mL; the “EC50 in HT-29 cells, pSTAT1” value came out at 1 ng/mL.
